The values that follow come from PMC5511170, “Deviation of the typical AAA substrate-threading pore prevents fatal protein degradation in yeast Cdc48” (Scientific Reports, 2017).

The assay addresses T1, GST-Ufd2 (yeast (Saccharomyces cerevisiae), UniProt P54860 1-961).
T1 construct: Ufd2, E4 ubiquitin ligase, yeast, cloned in pGEX6P-1; Cloned in pGEX6P-1; source: E. coli BL21, purified (glutathione-sepharose)
T1 sequence (looked up): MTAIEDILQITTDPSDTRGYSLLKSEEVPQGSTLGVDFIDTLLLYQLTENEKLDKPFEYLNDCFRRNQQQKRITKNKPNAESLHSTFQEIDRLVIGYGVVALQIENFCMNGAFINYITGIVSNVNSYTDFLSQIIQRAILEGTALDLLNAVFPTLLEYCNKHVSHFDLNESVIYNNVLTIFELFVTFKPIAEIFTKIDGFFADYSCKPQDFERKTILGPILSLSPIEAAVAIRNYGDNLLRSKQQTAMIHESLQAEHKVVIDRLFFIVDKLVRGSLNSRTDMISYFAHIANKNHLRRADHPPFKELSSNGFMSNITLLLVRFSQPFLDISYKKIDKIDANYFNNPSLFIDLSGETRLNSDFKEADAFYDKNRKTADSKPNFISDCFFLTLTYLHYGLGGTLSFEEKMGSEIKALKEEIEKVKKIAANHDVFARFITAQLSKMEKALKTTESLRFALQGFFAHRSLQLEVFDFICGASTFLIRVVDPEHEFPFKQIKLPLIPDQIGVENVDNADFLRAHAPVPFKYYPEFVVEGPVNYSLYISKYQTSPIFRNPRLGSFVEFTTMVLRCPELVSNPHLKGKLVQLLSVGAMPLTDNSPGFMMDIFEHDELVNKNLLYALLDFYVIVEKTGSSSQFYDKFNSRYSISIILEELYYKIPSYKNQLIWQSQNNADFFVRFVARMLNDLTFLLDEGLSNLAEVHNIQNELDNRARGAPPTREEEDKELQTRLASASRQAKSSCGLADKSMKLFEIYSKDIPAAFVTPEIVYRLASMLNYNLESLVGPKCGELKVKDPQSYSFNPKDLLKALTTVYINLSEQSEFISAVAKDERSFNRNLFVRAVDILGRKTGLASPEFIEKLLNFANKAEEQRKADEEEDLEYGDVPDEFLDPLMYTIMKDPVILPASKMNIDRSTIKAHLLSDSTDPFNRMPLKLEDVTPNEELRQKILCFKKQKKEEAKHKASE
Nature of the assay: pull-down; GST-Ufd2 (40 pmol) incubated with 20 pmol Cdc48 in 100 µL 20 mM Tris-HCl pH 7.4, 50 mM NaCl, 1 mM MgCl2, 5 mM β-mercaptoethanol, 20% glycerol, 10 min at 25 °C; then glutathione-sepharose 4B 30 min at room temperature; eluted with glutathione; immunoblot with anti-Cdc48 and anti-GST. As to conditions: both partners purified. (In general: A western blot detects proteins with antibodies after separation by electrophoresis.)

B1: wild-type Cdc48 (N-terminally His-tagged) (natural protein, Saccharomyces cerevisiae, UniProt P25694 1-835, looked up)
chain: MGEEHKPLLDASGVDPREEDKTATAILRRKKKDNMLLVDDAINDDNSVIAINSNTMDKLELFRGDTVLVKGKKRKDTVLIVLIDDELEDGACRINRVVRNNLRIRLGDLVTIHPCPDIKYATRISVLPIADTIEGITGNLFDVFLKPYFVEAYRPVRKGDHFVVRGGMRQVEFKVVDVEPEEYAVVAQDTIIHWEGEPINREDEENNMNEVGYDDIGGCRKQMAQIREMVELPLRHPQLFKAIGIKPPRGVLMYGPPGTGKTLMARAVANETGAFFFLINGPEVMSKMAGESESNLRKAFEEAEKNAPAIIFIDEIDSIAPKRDKTNGEVERRVVSQLLTLMDGMKARSNVVVIAATNRPNSIDPALRRFGRFDREVDIGIPDATGRLEVLRIHTKNMKLADDVDLEALAAETHGYVGADIASLCSEAAMQQIREKMDLIDLDEDEIDAEVLDSLGVTMDNFRFALGNSNPSALRETVVESVNVTWDDVGGLDEIKEELKETVEYPVLHPDQYTKFGLSPSKGVLFYGPPGTGKTLLAKAVATEVSANFISVKGPELLSMWYGESESNIRDIFDKARAAAPTVVFLDELDSIAKARGGSLGDAGGASDRVVNQLLTEMDGMNAKKNVFVIGATNRPDQIDPAILRPGRLDQLIYVPLPDENARLSILNAQLRKTPLEPGLELTAIAKATQGFSGADLLYIVQRAAKYAIKDSIEAHRQHEAEKEVKVEGEDVEMTDEGAKAEQEPEVDPVPYITKEHFAEAMKTAKRSVSDAELRRYEAYSQQMKASRGQFSNFNFNDAPLGTTATDNANSNNSAPSGAGAAFGSNAEEDDDLYS
notes: Cdc48, Saccharomyces cerevisiae, wild type, cloned in pET15b; Cloned in pET15b; also called WT; yeast Cdc48
B1: the binding result is “binds”.

B2: Cdc48 M288Y mutant (N-terminally His-tagged) (natural protein, Saccharomyces cerevisiae, UniProt P25694 1-835, looked up)
chain: MGEEHKPLLDASGVDPREEDKTATAILRRKKKDNMLLVDDAINDDNSVIAINSNTMDKLELFRGDTVLVKGKKRKDTVLIVLIDDELEDGACRINRVVRNNLRIRLGDLVTIHPCPDIKYATRISVLPIADTIEGITGNLFDVFLKPYFVEAYRPVRKGDHFVVRGGMRQVEFKVVDVEPEEYAVVAQDTIIHWEGEPINREDEENNMNEVGYDDIGGCRKQMAQIREMVELPLRHPQLFKAIGIKPPRGVLMYGPPGTGKTLMARAVANETGAFFFLINGPEVMSKYAGESESNLRKAFEEAEKNAPAIIFIDEIDSIAPKRDKTNGEVERRVVSQLLTLMDGMKARSNVVVIAATNRPNSIDPALRRFGRFDREVDIGIPDATGRLEVLRIHTKNMKLADDVDLEALAAETHGYVGADIASLCSEAAMQQIREKMDLIDLDEDEIDAEVLDSLGVTMDNFRFALGNSNPSALRETVVESVNVTWDDVGGLDEIKEELKETVEYPVLHPDQYTKFGLSPSKGVLFYGPPGTGKTLLAKAVATEVSANFISVKGPELLSMWYGESESNIRDIFDKARAAAPTVVFLDELDSIAKARGGSLGDAGGASDRVVNQLLTEMDGMNAKKNVFVIGATNRPDQIDPAILRPGRLDQLIYVPLPDENARLSILNAQLRKTPLEPGLELTAIAKATQGFSGADLLYIVQRAAKYAIKDSIEAHRQHEAEKEVKVEGEDVEMTDEGAKAEQEPEVDPVPYITKEHFAEAMKTAKRSVSDAELRRYEAYSQQMKASRGQFSNFNFNDAPLGTTATDNANSNNSAPSGAGAAFGSNAEEDDDLYS
notes: Cdc48, Saccharomyces cerevisiae, with M288Y in the D1 pore loop, cloned in pET15b; Cloned in pET15b
As to B2, the binding result is “binds”.
